Experimental data: the supplement of paper PMC7877785
± gives the uncertainty stated by the source.

Test: self-splicing fitness, log relative to wild type (ln ratio); higher = more splicing; Tetrahymena group I intron in knt gene, E. coli kanamycin selection, DiMSum; sequences stand for … in CUCUCU…GGAGGGAAAAGUUAUCAGGCAUGCACCUGGUAGCUAGUCUUUAAACCAAUAGAUUGCAUCGGUUUAAAAGGCAAGACCGUCAAAUUGCGGGAAAGGGGUCAACAGCCGUUCAGUACCAAGUCUCAGGGGAAACUUUGAGAUGGCCUUGCAAAGGGUAUGGUAAUAAGCUGACGGACAUGGUCCUAACCACGCAGCCAAGUCCUAAGUCAACAGAUCUUCUGUUGAUAUGGAUGCAGUUCACAGACUAAAUGUCGGUCGGGGAAGAUGUAUUCUUCUCAUAAGAUAUAGUCGGACCUCUCCUUAAUGGGAGCUAGCGGAUGAAGUGAUGCAACACUGGAGCCGCUGGGAACUAAUUUGUAUGCGAAAGUAUAUUGAUUAGUUUUGGAGUACUCGUGGUCG
Procedure, shortened: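 Pooled colonies went to amplicon sequencing on an Illumina HiSeq 2500 after six replicate transformations. The plates were LB agar with 100 μg/mL carbenicillin, 50 μM IPTG and 0.2% rhamnose, with or without 25 μg/mL kanamycin, incubated overnight at 37°C or 30°C. The E. coli BL21(DE3) library had all eight P1ex-region intron nucleotides randomised, the intron placed in the knt kanamycin-resistance gene on pET-22b(+). DiMSum fitness is the error-weighted combination of replicate fold changes, kanamycin against none, normalised to wild type.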

Sequence | self-splicing fitness (ln) (30 °C) | self-splicing fitness (ln) (37 °C)
GAUUAGCAAUAUUACGAUAA | -0.956 ± 0.12 | 0.0487 ± 0.15
GAUUAGCAAUAUUACGCAGA | -3.16 ± 0.23 | -1.16 ± 0.16
GAUUAGCAAUAUUACGCCCA | -0.748 ± 0.11 | 0.123 ± 0.14
GAUUAGCAAUAUUACGCGUA | -1.01 ± 0.1 | -0.855 ± 0.091
GAUUAGCAAUAUUACGGCGG | -0.96 ± 0.16 | -2.17 ± 0.25
GAUUAGCAAUAUUACGGGAA | -1.67 ± 0.26 | -3.27 ± 0.43
GAUUAGCAAUAUUACGGGGA | -2.86 ± 0.19 | -2.71 ± 0.2
GAUUAGCAAUAUUACGGGUC | – | -2.78 ± 0.34
GAUUAGCAAUAUUACGUACU | -0.632 ± 0.073 | 0.0191 ± 0.088
GAUUAGCAAUAUUACGUAGC | -1.74 ± 0.14 | -1.33 ± 0.18
GAUUAGCAAUAUUACGUGGA | -3.92 ± 0.3 | -0.488 ± 0.13
GAUUAGCAAUAUUACGUGGC | -3.36 ± 0.25 | -2.3 ± 0.21
GAUUAGCAAUAUUACGUUAU | -3.04 ± 0.21 | -2.51 ± 0.18
GAUUAGCAAUAUUACGUUUC | -3.69 ± 0.28 | -1.89 ± 0.18
GCAAAGCAAUAUUACGAAGG | -2 ± 0.14 | -0.499 ± 0.17
GCAAAGCAAUAUUACGACCG | -0.859 ± 0.14 | -1.26 ± 0.25
GCAAAGCAAUAUUACGACUA | -0.955 ± 0.05 | -0.475 ± 0.055
GCAAAGCAAUAUUACGAGAU | -3.64 ± 0.16 | -2.19 ± 0.12
GCAAAGCAAUAUUACGAGGU | -3.56 ± 0.25 | -3.24 ± 0.33
GCAAAGCAAUAUUACGAGUA | -2.1 ± 0.087 | -1.15 ± 0.086
GCAAAGCAAUAUUACGAUUC | -1.26 ± 0.082 | -0.245 ± 0.1
GCAAAGCAAUAUUACGCAGC | -0.0889 ± 0.15 | -2.46 ± 0.39
GCAAAGCAAUAUUACGCAUG | -3.61 ± 0.22 | -2.97 ± 0.27
GCAAAGCAAUAUUACGCGAA | -1.55 ± 0.14 | -0.599 ± 0.17
GCAAAGCAAUAUUACGCGAC | -3.4 ± 0.13 | -1.54 ± 0.16

Sequence | self-splicing fitness (ln) (30 °C) | self-splicing fitness (ln) (37 °C)
GCAAAGCAAUAUUACGGAUA | -2.49 ± 0.13 | -1.6 ± 0.1
GCAAAGCAAUAUUACGGGAG | -2.71 ± 0.11 | -2.08 ± 0.13
GCAAAGCAAUAUUACGGUAU | -1.32 ± 0.072 | -0.489 ± 0.096
GCAAAGCAAUAUUACGGUCC | -1.75 ± 0.14 | -0.8 ± 0.15
GCAAAGCAAUAUUACGUAAC | -1.67 ± 0.12 | -0.338 ± 0.15
GCAAAGCAAUAUUACGUAGU | -2.09 ± 0.11 | -1.14 ± 0.15
GCAAAGCAAUAUUACGUCCC | -0.828 ± 0.14 | -0.697 ± 0.098
GCAAAGCAAUAUUACGUCCG | -1.98 ± 0.25 | -1.74 ± 0.31
GCAAAGCAAUAUUACGUCUU | -1.14 ± 0.074 | -1.11 ± 0.075
GCAAAGCAAUAUUACGUGCA | -1.62 ± 0.099 | -0.826 ± 0.1
GCAAAGCAAUAUUACGUGUC | -4.47 ± 0.18 | -1.84 ± 0.12
GCAAAGCAAUAUUACGUUGC | -3.51 ± 0.21 | -1.88 ± 0.21
GCACAGCAAUAUUACGAAAG | -3.79 ± 0.15 | -1.91 ± 0.11
GCACAGCAAUAUUACGACUA | -1.17 ± 0.11 | -0.702 ± 0.085
GCACAGCAAUAUUACGACUG | -1.14 ± 0.094 | -0.12 ± 0.093
GCACAGCAAUAUUACGAGCG | -1.16 ± 0.066 | -0.171 ± 0.077
GCACAGCAAUAUUACGAUGC | -3.17 ± 0.2 | -1.88 ± 0.17
GCACAGCAAUAUUACGAUUC | -0.739 ± 0.11 | 1.44 ± 0.15
GCACAGCAAUAUUACGCAUU | -0.442 ± 0.064 | 0.276 ± 0.078
GCACAGCAAUAUUACGCGAU | -2.12 ± 0.16 | -1.55 ± 0.15
GCACAGCAAUAUUACGCGCC | -2.56 ± 0.38 | –
GCACAGCAAUAUUACGCGGC | -4.04 ± 0.43 | -1.84 ± 0.26
GCACAGCAAUAUUACGCGGG | -2.13 ± 0.069 | -1.39 ± 0.081
GCACAGCAAUAUUACGCGUU | -1.29 ± 0.053 | -0.545 ± 0.057
GCACAGCAAUAUUACGCUAG | -1.9 ± 0.082 | -1.18 ± 0.078

Sequence | self-splicing fitness (ln) (30 °C) | self-splicing fitness (ln) (37 °C)
GCACAGCAAUAUUACGCUCC | -1.27 ± 0.16 | 0.155 ± 0.17
GCACAGCAAUAUUACGGAAU | -1.08 ± 0.076 | -0.95 ± 0.095
GCACAGCAAUAUUACGGACA | -1.02 ± 0.1 | -0.584 ± 0.11
GCACAGCAAUAUUACGGAGA | -2.85 ± 0.12 | -2.16 ± 0.13
GCACAGCAAUAUUACGGCGC | -1.54 ± 0.1 | -0.777 ± 0.12
GCACAGCAAUAUUACGGUAC | -1.17 ± 0.096 | -0.285 ± 0.1
GCACAGCAAUAUUACGGUCC | -0.798 ± 0.062 | 0.0593 ± 0.082
GCACAGCAAUAUUACGGUGC | -3.09 ± 0.2 | -2.61 ± 0.23
GCACAGCAAUAUUACGUAUU | -1 ± 0.047 | -0.335 ± 0.057
GCACAGCAAUAUUACGUCCA | -0.954 ± 0.12 | -0.96 ± 0.11
GCACAGCAAUAUUACGUCUA | -0.8 ± 0.06 | -0.367 ± 0.063
GCACAGCAAUAUUACGUCUG | -2.53 ± 0.1 | -1.27 ± 0.11
GCACAGCAAUAUUACGUUCU | -0.579 ± 0.054 | -0.524 ± 0.068
GCACAGCAAUAUUACGUUUG | -1.62 ± 0.066 | -1.08 ± 0.089
GCAGAGCAAUAUUACGACCU | – | -1.59 ± 0.42
GCAGAGCAAUAUUACGCACG | -4.51 ± 0.42 | -2.05 ± 0.23
GCAGAGCAAUAUUACGCAGC | -2.42 ± 0.47 | –
GCAGAGCAAUAUUACGCAUU | -3.11 ± 0.16 | -2.3 ± 0.2
GCAGAGCAAUAUUACGCCGG | -2.85 ± 0.45 | -0.641 ± 0.35
GCAGAGCAAUAUUACGCUGC | -3.42 ± 0.48 | -1.76 ± 0.33
GCAGAGCAAUAUUACGGAAA | – | -2.15 ± 0.43
GCAGAGCAAUAUUACGGAGC | -2.89 ± 0.28 | -2.84 ± 0.28
GCAGAGCAAUAUUACGGCAG | -2.87 ± 0.23 | -1.18 ± 0.25
GCAGAGCAAUAUUACGGCUG | -2.42 ± 0.25 | –
GCAGAGCAAUAUUACGGGUG | -2.91 ± 0.22 | -1.82 ± 0.16

Sequence | self-splicing fitness (ln) (30 °C) | self-splicing fitness (ln) (37 °C)
GCAGAGCAAUAUUACGGUAA | -3.52 ± 0.27 | -2.36 ± 0.21
GCAGAGCAAUAUUACGGUAG | -1.82 ± 0.27 | -0.285 ± 0.44
GCAGAGCAAUAUUACGUCCG | -2.57 ± 0.14 | -2.51 ± 0.17
GCAGAGCAAUAUUACGUCUU | -0.897 ± 0.12 | -2.22 ± 0.21
GCAGAGCAAUAUUACGUUCA | -2.06 ± 0.13 | -0.713 ± 0.1
GCAGAGCAAUAUUACGUUGC | – | -1.06 ± 0.43
GCAGAGCAAUAUUACGUUUU | -3.54 ± 0.17 | -3.12 ± 0.2
GCAUAGCAAUAUUACGACCA | -0.207 ± 0.11 | -0.544 ± 0.14
GCAUAGCAAUAUUACGAUGU | -2.82 ± 0.13 | -2.31 ± 0.17
GCAUAGCAAUAUUACGAUUA | -1.47 ± 0.18 | 0.017 ± 0.15
GCAUAGCAAUAUUACGCAAU | -2.37 ± 0.11 | -1.77 ± 0.12
GCAUAGCAAUAUUACGCAGU | -4.08 ± 0.17 | -1.81 ± 0.12
GCAUAGCAAUAUUACGCCGA | – | -2.37 ± 0.25
GCAUAGCAAUAUUACGCCGU | -3.07 ± 0.15 | -1.83 ± 0.14
GCAUAGCAAUAUUACGCCUA | -1.83 ± 0.13 | -1.39 ± 0.12
GCAUAGCAAUAUUACGCGAC | -2.79 ± 0.16 | 0.0921 ± 0.13
GCAUAGCAAUAUUACGCGUG | -3.46 ± 0.2 | -2.64 ± 0.28
GCAUAGCAAUAUUACGCUUG | -3.29 ± 0.21 | -2.64 ± 0.31
GCAUAGCAAUAUUACGGAGA | -4.01 ± 0.37 | -3.02 ± 0.33
GCAUAGCAAUAUUACGGAGU | -3.52 ± 0.14 | -1.86 ± 0.11
GCAUAGCAAUAUUACGGCCC | -0.542 ± 0.32 | -0.431 ± 0.37
GCAUAGCAAUAUUACGGGUC | -3.17 ± 0.14 | -2.71 ± 0.17
